The record followed here is publication PMC4958246.

The target of the experiment is polymerized rabbit skeletal muscle actin (F-actin) (rabbit) (UniProt P68135). Put plainly: co-sedimentation; proteins incubated with polymerized rabbit skeletal actin (40 µl of a 1-mg/ml stock; 50 mM KCl, 2 mM MgCl2, 1 mM ATP); WD0830 at 40 ng/ml final; centrifuged at 14,000 x g 1 h 24°C, then 150,000 x g 1.5 h 24°C; supernatants and pellets on silver-stained SDS-PAGE, densitometry with ImageJ.

In turn, “Wolbachia pipientis wMel protein WD0830 (Wolbachia actin-localizing effector 1) (natural protein)” returned a percent of the protein in the pellet with actin of 24%.
